Biological target: double-mutant TPX2 (2M-TPX2) (Xenopus laevis) (UniProt Q6NUF4)
Assay: BLI; Octet (ForteBio); TPX2 attached to sensors, importin concentration varied; normalized amplitudes; apparent Kd

Sequence of importin-αΔIBB (truncated importin-α without the importin-β-binding domain) (domain or fragment) (P52170 71-522, stated change not applied): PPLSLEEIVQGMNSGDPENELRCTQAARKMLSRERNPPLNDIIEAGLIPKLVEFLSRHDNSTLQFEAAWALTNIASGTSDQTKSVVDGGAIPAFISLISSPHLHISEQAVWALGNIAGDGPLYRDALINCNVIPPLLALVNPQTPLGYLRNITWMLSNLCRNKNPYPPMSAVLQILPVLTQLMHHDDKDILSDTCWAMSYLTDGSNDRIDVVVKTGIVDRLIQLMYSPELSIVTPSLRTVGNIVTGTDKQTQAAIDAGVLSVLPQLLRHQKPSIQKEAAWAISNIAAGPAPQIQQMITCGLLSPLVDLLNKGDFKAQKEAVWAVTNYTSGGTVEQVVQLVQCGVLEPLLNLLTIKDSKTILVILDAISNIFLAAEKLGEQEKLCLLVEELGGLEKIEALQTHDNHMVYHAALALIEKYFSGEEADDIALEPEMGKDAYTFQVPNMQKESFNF

- Kd: 45 nM
Substance: importin-αΔIBB (truncated importin-α without the importin-β-binding domain) (domain or fragment)
